In patent US20260049134A1 (UNIVERSITY OF FLORIDA RESEARCH FOUNDATION, published 2026):

B1: HW-8 chimeric rabbit-human IgG1 LA/LA/PG (antibody, V domains shown)
VH: QSLEESGGRLVTPGTPLTLTCTVSGFSLSSYAMSWVRQAPGKGLEWIGAISTGGSTTYASWAKGRFTISKTSSTTVDLKMTSLTTEDTATYFCVRHFRLWGPGTLVTISS
VL: QVLTQTPSSVSAAVGGTVTIKCQASQSIGSALAWFQQKPGQRPKLLIYRASNLASGVPSRFKGSGSGTEFALTISGVQREDAATYYCLGGAAAVWAFGAGTNVEIKR
notes: Fc-silenced (L234A/L235A/P329G) IgG1, kappa; Alexa Fluor 647-labeled in single-step flow cytometry; Cluster C-45
B2: TH9-0022 (antibody, human IgG1, kappa, L234A L235A, V domains shown)
VH: QSLEESGGRLVTPGTPLTLTCTVSGFSLSSYAMNWVRQAPGKGLEWIGIINSYGSTYYASWAKGRFTISKTSTTVDLKITSPTTEDTATYFCARVTYDSYGYGYAPYGMDLWGPGTLVTVSS
VL: LVMTQTPSSTSNAVGGTVTIKCQASQSIGNVLAWYQQKPGQPPKLLIYAASTLASGVPSRVGGSRSGTEYTLTISGVQREDAATYYCLGSDSDSDIAFGGGTELEILR
notes: also called TH9-022; negative control
B3: TH9-0022 (antibody, human IgG1, kappa, L234A L235A, V domains shown)
VH: QSLEESGGRLVTPGTPLTLTCTVSGFSLSSYAMNWVRQAPGKGLEWIGIINSYGSTYYASWAKGRFTISKTSTTVDLKITSPTTEDTATYFCARVTYDSYGYGYAPYGMDLWGPGTLVTVSS
VL: LVMTQTPSSTSNAVGGTVTIKCQASQSIGNVLAWYQQKPGQPPKLLIYAASTLASGVPSRVGGSRSGTEYTLTISGVQREDAATYYCLGSDSDSDIAFGGGTELEILR
notes: also called TH9-022; negative control IgG1
B4: HW-1 chimeric rabbit-human IgG1 LA/LA/PG (antibody, V domains shown)
VH: QSLEESGGGLFKPTDTLTLTCTASGFSLGSSYAISWVRQAPGKELEWIGTIDSGRAYYARWAKSRSTITRNTNENTVTLKMTSLTAADTATYFCARDLIPTYSQDIWGPGTLVTISS
VL: SFVLTQPASVQVNLGQTVSLTCTADTLSRRYASWYQQKPGQAPVLLIYRDTSRPSGVPDRFSGSSSGNTATLTISGAQAGDEADYYCATSDGSGNSYQYVFGGGTQLTVTS
notes: Fc-silenced (L234A/L235A/P329G) IgG1, lambda; Alexa Fluor 647-labeled in single-step flow cytometry; Prototype of cluster C-1
B5: HW-101 chimeric rabbit-human IgG1 LA/LA/PG (antibody, V domains shown)
VH: QEQLVESGGRLVTPGTPLTLTCKASGFSLGKYDMSWVRQAPGKGLEWIGTIYAGSGSTWYASWAKGRFTISKTSTTVDLKMTSLTTEDTATYFCARDFLGVNSIWGPGTLVTISS
VL: SFVLTQPASVQVNLGQTVSLTCTADTLSRSYASWYQQKPDQAPVLLIHRDTSRPSGVPDRFSGSNSGNTATLTISGAQAGDEADYYCATSDGSGSNFHFVFGGGTQLTVTG
notes: Fc-silenced (L234A/L235A/P329G) IgG1, lambda; Alexa Fluor 647-labeled in single-step flow cytometry; Cluster C-97
B6: HW-113 chimeric rabbit-human IgG1 LA/LA/PG (antibody, V domains shown)
VH: QKQLVESGGGLVQPGGSLTLTCTVSGFSLNKYYMGWFRQAPGKGLEWIGVISRSGDTYYSSWAKGRFTISKASTTVDLRITSPTTEDTATYFCARDASSPGFHGDRLDLWGQGTLVTVSS
VL: SFVLTQPASVQVNLGQTVSLTCTADTLSRSYASWYQQKPGQAPVLLIYRDTSRPSGVPDRFSGSSSGNTATLTISGAQAGDEADYYCATSDGIGSNYLWVFGGGTQLTVTG
notes: Fc-silenced (L234A/L235A/P329G) IgG1, lambda; Alexa Fluor 647-labeled in single-step flow cytometry

Legend:
[1] = biological target: T1, GARS-His (Sino Biological) (human, UniProt P41250 37-739, limits assumed); assay: ELISA, coated recombinant GARS-His, anti-human Fab-peroxidase detection
T1 construct: Bought; also called GARS1; glycyl-tRNA synthetase; not shown: His tag of the bought protein
T1 sequence: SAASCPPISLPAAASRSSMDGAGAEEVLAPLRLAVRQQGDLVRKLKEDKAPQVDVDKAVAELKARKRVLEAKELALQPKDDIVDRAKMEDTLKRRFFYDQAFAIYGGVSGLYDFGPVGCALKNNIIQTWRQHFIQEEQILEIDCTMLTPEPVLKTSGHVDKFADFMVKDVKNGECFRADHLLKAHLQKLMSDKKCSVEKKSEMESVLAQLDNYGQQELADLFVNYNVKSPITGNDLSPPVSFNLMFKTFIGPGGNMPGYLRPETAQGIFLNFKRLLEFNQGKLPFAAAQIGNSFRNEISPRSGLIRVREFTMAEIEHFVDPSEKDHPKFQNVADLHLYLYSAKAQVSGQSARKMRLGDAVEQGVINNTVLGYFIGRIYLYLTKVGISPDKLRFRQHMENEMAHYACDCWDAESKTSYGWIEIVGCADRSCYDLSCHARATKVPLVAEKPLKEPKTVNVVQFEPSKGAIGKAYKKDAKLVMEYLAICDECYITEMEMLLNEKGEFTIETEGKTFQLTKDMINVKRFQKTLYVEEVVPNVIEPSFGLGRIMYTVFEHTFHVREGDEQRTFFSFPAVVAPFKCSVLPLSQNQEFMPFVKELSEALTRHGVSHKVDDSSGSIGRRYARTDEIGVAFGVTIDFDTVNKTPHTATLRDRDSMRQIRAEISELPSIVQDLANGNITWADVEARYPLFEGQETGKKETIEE
Description: ELISA ELISA was conducted as described previously. Briefly, 50-150 ng of antigen was coated overnight in half-area 96-well plates at 4° C., blocked with 3% BSA at 37° C. for 1 h, and 150 ng of chimeric rabbit/human IgG1 was added, incubating for 2 h at 37° C. […] After incubating at 37° C. for 15 min-1 h (depending on intensity of controls), data were acquired using a SpectraMax M5 plate reader (Molecular Devices).

[2] = biological target: T2, ICAM1, endogenous in H929 multiple myeloma cells (human, UniProt P05362 28-532); assay: flow cytometry, H929 + NT Green siRNA; None 1.35
T2 construct: Native protein on H929 cells (flow cytometry, siRNA knockdown) and in H929 lysates (IP/MS); also called CD54

[3] = biological target: T2, ICAM1, endogenous in H929 multiple …; assay: flow cytometry, H929 + vehicle; None 513
[4] = biological target: T3, GARS, endogenous in H929 multiple myeloma cells (human, UniProt P41250 37-739, limits assumed); assay: IP from H929 cell lysate, LC-MS/MS
T3 construct: Native protein pulled down from H929 lysates; also called Glycyl-tRNA synthetase; GlyRS
T3 sequence: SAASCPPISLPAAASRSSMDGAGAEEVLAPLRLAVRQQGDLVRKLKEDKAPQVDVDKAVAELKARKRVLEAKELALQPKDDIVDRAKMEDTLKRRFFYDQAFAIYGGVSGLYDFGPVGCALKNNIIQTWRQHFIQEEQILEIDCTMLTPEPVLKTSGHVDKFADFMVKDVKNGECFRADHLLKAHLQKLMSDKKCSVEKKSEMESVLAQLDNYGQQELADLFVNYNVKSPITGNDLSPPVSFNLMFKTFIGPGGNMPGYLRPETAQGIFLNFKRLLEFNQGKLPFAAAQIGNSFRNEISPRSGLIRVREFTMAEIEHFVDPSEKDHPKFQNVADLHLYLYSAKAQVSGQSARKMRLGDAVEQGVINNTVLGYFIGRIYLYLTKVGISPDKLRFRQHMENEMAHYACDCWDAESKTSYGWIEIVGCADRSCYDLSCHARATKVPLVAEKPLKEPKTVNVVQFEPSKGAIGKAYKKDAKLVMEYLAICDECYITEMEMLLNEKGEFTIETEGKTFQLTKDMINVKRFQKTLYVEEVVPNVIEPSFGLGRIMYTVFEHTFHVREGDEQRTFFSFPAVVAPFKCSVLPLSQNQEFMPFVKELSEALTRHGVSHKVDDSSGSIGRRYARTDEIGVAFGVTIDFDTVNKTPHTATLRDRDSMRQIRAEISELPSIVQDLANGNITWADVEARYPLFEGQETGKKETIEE
Description: (§1) Immunoprecipitation. […] After 30 min of rocking at 4° C., and lysates were centrifuged at 18,400×g for 20 min at 4° C. Subsequently, 1-mL aliquots of the supernatants were pre-cleared twice with Protein G agarose (Thermo Fisher Scientific) by adding 50 μL of 50% resin slurry and incubating 30 min with end-over-end tumbling at 4° C., followed by centrifugation at 16,000×g for 5 min and pooling of the pre-cleared cell lysate aliquots. Representative mAbs from each cluster were immobilized on Protein G agarose at a ratio of 25 μg IgG1 per 30 μL of 50% slurry, diluted to 500 μL with Dulbecco's PBS (DPBS) and incubated for 1 h at 4° C. with tumbling, followed by centrifugation at 5,000×g for 30 s and 2 washes with lysis buffer. After the last wash, the ˜15 μL of IgG1-coated resin was blocked with 10 μL of 10% BSA (MilliporeSigma). Next, 1 mL of the pooled pre-cleared cell lysate was added to the IgG1-coated resin and incubated for 3 h at 4° C. with tumbling. […] Finally, 16 μL of the eluate (˜20%) was analyzed on a reducing SDS-PAGE gel stained with SYPRO Ruby dye (Bio-Rad Laboratories), while the rest was stored at −80° C. prior to LC-MS/MS analysis. […]

[5] = biological target: T3, GARS, endogenous in H929 multiple …; assay: IP from H929 cell lysate, LC-MS/MS, spectral counts
Description: as §1

[6] = biological target: T2, ICAM1, endogenous in H929 multiple …; assay: flow cytometry, H929 + PTPRG siRNA; None 490
[7] = biological target: T2, ICAM1, endogenous in H929 multiple …; assay: flow cytometry, H929 + CADM1 siRNA; None 449
[8] = biological target: T2, ICAM1, endogenous in H929 multiple …; assay: flow cytometry, H929 + PTPRG siRNA; None 2.13

T2 sequence (P05362 28-532 limits assumed): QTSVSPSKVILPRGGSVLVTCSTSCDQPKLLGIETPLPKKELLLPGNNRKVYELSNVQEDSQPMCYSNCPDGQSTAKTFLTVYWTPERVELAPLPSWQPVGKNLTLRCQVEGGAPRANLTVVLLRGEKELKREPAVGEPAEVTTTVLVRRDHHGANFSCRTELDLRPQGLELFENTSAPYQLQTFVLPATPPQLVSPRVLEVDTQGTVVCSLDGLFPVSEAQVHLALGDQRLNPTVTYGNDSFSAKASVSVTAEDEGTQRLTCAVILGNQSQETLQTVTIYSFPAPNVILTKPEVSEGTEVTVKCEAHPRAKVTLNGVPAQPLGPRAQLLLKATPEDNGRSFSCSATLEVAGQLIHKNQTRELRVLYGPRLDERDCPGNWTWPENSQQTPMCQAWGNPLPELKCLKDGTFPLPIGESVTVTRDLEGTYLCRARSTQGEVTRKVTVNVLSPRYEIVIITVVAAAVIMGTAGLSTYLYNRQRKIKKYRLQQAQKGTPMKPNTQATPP

Binder	Cells stained (%) [2]	mAb binding (MFI) [3]	binding result [4]	binding result [5]	other results
B1	–	–	–	–	binding result [1]: no binding (tested: 150 ng of IgG1 per well)
B2	1.86%	595	–	–	–
B3	–	–	no binding	–	–
B4	–	–	no binding	–	–
B5	–	–	–	no binding	–
B6	99.8%	49100	–	no binding	mAb binding (MFI) [6]: 27800; mAb binding (MFI) [7]: 32600; Cells stained (%) [8]: 98.2%
